# US12698507B2, “Methods and compositions for conferring and/or enhancing herbicide tolerance using protoporphyrinogen IX oxidase of various cyanobacteria or variant thereof” (FarmHannong Co., Ltd., priority 2019, dated 2026)
# System: PPO-deficient BT3 E. coli (ΔPPO)
# Assay: PPO-inhibiting herbicide tolerance test of PPO variants in E. coli (growth on herbicide-containing LB agar)
# Assay type: cell-based
# Settings: CyPPO19 variants in BT3 (ΔPPO) E. coli; LB agar with 0 to 2,000 μM herbicide, 37° C., dark, 16-20 hours
# Summary of the method: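 Tolerance was scored against wild-type enzyme: '−' for equal growth, one '+' per 10-fold gain, up to '+++++'. ΔPPO BT3 cells carrying variant plasmids, spotted as a 10-fold dilution series from OD600=0.5, grew 16-20 h at 37° C. in the dark on ampicillin LB agar containing 0 to 2,000 μM herbicide.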
Molecule,"tolerance level relative to wild type, Carfentrazone","tolerance level relative to wild type, Flumioxazin","tolerance level relative to wild type, Fomesafen","tolerance level relative to wild type, Oxyfluorfen","tolerance level relative to wild type, Saflufenacil","tolerance level relative to wild type, Sulfentrazone","tolerance level relative to wild type, Tiafenacil"
"CyPPO19 R89A + V165C + F360I: variant of CyPPO19 PPO protein (SEQ ID NO: 1) (protein, Synthetic_PPO of Thermosynechococcus elongatus PKUAC-SCTE542 (comprising GenBank No. CP032152.1)) MSEVDVAIVGGGLSGLSLAWRLQQSAPQYSVVLLEASDRLGGNITTQTAEGFVWELGPNSFAPTPALLQLIAEVGLQSELIRGDRHLPAYIYWRGQLYPLQPTRPLALATSNLLSPWGKVRAALGALGFVPPYLGSGDESVNSFFRRHLGQEVAERLVAPFVSGCYAGDPQQLSAAAAFRRIAQLEKLGGGLIAGALHLRRQQAPKPKPPTSVQMRPGELGSFKEGLAALPRAIAQQLKAPIHLQTPVQEITPDPKGGYLLRSGEQTWRARSVVLATPAYQTAELVAPFQPAIARVLATIPYPTVACVVLAYPAGLGRSVRPGFGVLIPRSQGIRTLGTIWSSCLFPQRTPAGWQVFTSIIGGATDPDLASLSEEAIVQQVQQDLNRLLDLPAAKARLLGMKVWRRAIPQYMVGYPEQWQQVTHALSQTPGLFLCSNYAEGVALGDRVEHGNRTAAAVAAYLSGGQP",+ (‘+’ per each 10-fold resistance),++++ (‘+’ per each 10-fold resistance),++ (‘+’ per each 10-fold resistance),++ (‘+’ per each 10-fold resistance),++++ (‘+’ per each 10-fold resistance),+++ (‘+’ per each 10-fold resistance),++++ (‘+’ per each 10-fold resistance)
"CyPPO19 R89A + V165S + F360M: variant of CyPPO19 PPO protein (SEQ ID NO: 1) (protein, Synthetic_PPO of Thermosynechococcus elongatus PKUAC-SCTE542 (comprising GenBank No. CP032152.1)) MSEVDVAIVGGGLSGLSLAWRLQQSAPQYSVVLLEASDRLGGNITTQTAEGFVWELGPNSFAPTPALLQLIAEVGLQSELIRGDRHLPAYIYWRGQLYPLQPTRPLALATSNLLSPWGKVRAALGALGFVPPYLGSGDESVNSFFRRHLGQEVAERLVAPFVSGSYAGDPQQLSAAAAFRRIAQLEKLGGGLIAGALHLRRQQAPKPKPPTSVQMRPGELGSFKEGLAALPRAIAQQLKAPIHLQTPVQEITPDPKGGYLLRSGEQTWRARSVVLATPAYQTAELVAPFQPAIARVLATIPYPTVACVVLAYPAGLGRSVRPGFGVLIPRSQGIRTLGTIWSSCLFPQRTPAGWQVFTSMIGGATDPDLASLSEEAIVQQVQQDLNRLLDLPAAKARLLGMKVWRRAIPQYMVGYPEQWQQVTHALSQTPGLFLCSNYAEGVALGDRVEHGNRTAAAVAAYLSGGQP",+ (‘+’ per each 10-fold resistance),++++ (‘+’ per each 10-fold resistance),+++ (‘+’ per each 10-fold resistance),+++ (‘+’ per each 10-fold resistance),++++ (‘+’ per each 10-fold resistance),+++ (‘+’ per each 10-fold resistance),++++ (‘+’ per each 10-fold resistance)
"CyPPO19 R89A + V165C + F360V: variant of CyPPO19 PPO protein (SEQ ID NO: 1) (protein, Synthetic_PPO of Thermosynechococcus elongatus PKUAC-SCTE542 (comprising GenBank No. CP032152.1)) MSEVDVAIVGGGLSGLSLAWRLQQSAPQYSVVLLEASDRLGGNITTQTAEGFVWELGPNSFAPTPALLQLIAEVGLQSELIRGDRHLPAYIYWRGQLYPLQPTRPLALATSNLLSPWGKVRAALGALGFVPPYLGSGDESVNSFFRRHLGQEVAERLVAPFVSGCYAGDPQQLSAAAAFRRIAQLEKLGGGLIAGALHLRRQQAPKPKPPTSVQMRPGELGSFKEGLAALPRAIAQQLKAPIHLQTPVQEITPDPKGGYLLRSGEQTWRARSVVLATPAYQTAELVAPFQPAIARVLATIPYPTVACVVLAYPAGLGRSVRPGFGVLIPRSQGIRTLGTIWSSCLFPQRTPAGWQVFTSVIGGATDPDLASLSEEAIVQQVQQDLNRLLDLPAAKARLLGMKVWRRAIPQYMVGYPEQWQQVTHALSQTPGLFLCSNYAEGVALGDRVEHGNRTAAAVAAYLSGGQP",+ (‘+’ per each 10-fold resistance),++++ (‘+’ per each 10-fold resistance),+ (‘+’ per each 10-fold resistance),+ (‘+’ per each 10-fold resistance),++++ (‘+’ per each 10-fold resistance),+++ (‘+’ per each 10-fold resistance),++++ (‘+’ per each 10-fold resistance)
"CyPPO19 R89A + A167I + F360V: variant of CyPPO19 PPO protein (SEQ ID NO: 1) (protein, Synthetic_PPO of Thermosynechococcus elongatus PKUAC-SCTE542 (comprising GenBank No. CP032152.1)) MSEVDVAIVGGGLSGLSLAWRLQQSAPQYSVVLLEASDRLGGNITTQTAEGFVWELGPNSFAPTPALLQLIAEVGLQSELIRGDRHLPAYIYWRGQLYPLQPTRPLALATSNLLSPWGKVRAALGALGFVPPYLGSGDESVNSFFRRHLGQEVAERLVAPFVSGVYIGDPQQLSAAAAFRRIAQLEKLGGGLIAGALHLRRQQAPKPKPPTSVQMRPGELGSFKEGLAALPRAIAQQLKAPIHLQTPVQEITPDPKGGYLLRSGEQTWRARSVVLATPAYQTAELVAPFQPAIARVLATIPYPTVACVVLAYPAGLGRSVRPGFGVLIPRSQGIRTLGTIWSSCLFPQRTPAGWQVFTSVIGGATDPDLASLSEEAIVQQVQQDLNRLLDLPAAKARLLGMKVWRRAIPQYMVGYPEQWQQVTHALSQTPGLFLCSNYAEGVALGDRVEHGNRTAAAVAAYLSGGQP",+ (‘+’ per each 10-fold resistance),+++++ (until ‘+++++’ as maximal resistance),+++ (‘+’ per each 10-fold resistance),+++ (‘+’ per each 10-fold resistance),+++++ (until ‘+++++’ as maximal resistance),+++++ (until ‘+++++’ as maximal resistance),+++++ (until ‘+++++’ as maximal resistance)
"CyPPO19 R89A + A167C + F360L: variant of CyPPO19 PPO protein (SEQ ID NO: 1) (protein, Synthetic_PPO of Thermosynechococcus elongatus PKUAC-SCTE542 (comprising GenBank No. CP032152.1)) MSEVDVAIVGGGLSGLSLAWRLQQSAPQYSVVLLEASDRLGGNITTQTAEGFVWELGPNSFAPTPALLQLIAEVGLQSELIRGDRHLPAYIYWRGQLYPLQPTRPLALATSNLLSPWGKVRAALGALGFVPPYLGSGDESVNSFFRRHLGQEVAERLVAPFVSGVYCGDPQQLSAAAAFRRIAQLEKLGGGLIAGALHLRRQQAPKPKPPTSVQMRPGELGSFKEGLAALPRAIAQQLKAPIHLQTPVQEITPDPKGGYLLRSGEQTWRARSVVLATPAYQTAELVAPFQPAIARVLATIPYPTVACVVLAYPAGLGRSVRPGFGVLIPRSQGIRTLGTIWSSCLFPQRTPAGWQVFTSLIGGATDPDLASLSEEAIVQQVQQDLNRLLDLPAAKARLLGMKVWRRAIPQYMVGYPEQWQQVTHALSQTPGLFLCSNYAEGVALGDRVEHGNRTAAAVAAYLSGGQP",++ (‘+’ per each 10-fold resistance),++++ (‘+’ per each 10-fold resistance),++ (‘+’ per each 10-fold resistance),+++ (‘+’ per each 10-fold resistance),++++ (‘+’ per each 10-fold resistance),++++ (‘+’ per each 10-fold resistance),++++ (‘+’ per each 10-fold resistance)
"CyPPO19 R89A + A167L + F360T: variant of CyPPO19 PPO protein (SEQ ID NO: 1) (protein, Synthetic_PPO of Thermosynechococcus elongatus PKUAC-SCTE542 (comprising GenBank No. CP032152.1)) MSEVDVAIVGGGLSGLSLAWRLQQSAPQYSVVLLEASDRLGGNITTQTAEGFVWELGPNSFAPTPALLQLIAEVGLQSELIRGDRHLPAYIYWRGQLYPLQPTRPLALATSNLLSPWGKVRAALGALGFVPPYLGSGDESVNSFFRRHLGQEVAERLVAPFVSGVYLGDPQQLSAAAAFRRIAQLEKLGGGLIAGALHLRRQQAPKPKPPTSVQMRPGELGSFKEGLAALPRAIAQQLKAPIHLQTPVQEITPDPKGGYLLRSGEQTWRARSVVLATPAYQTAELVAPFQPAIARVLATIPYPTVACVVLAYPAGLGRSVRPGFGVLIPRSQGIRTLGTIWSSCLFPQRTPAGWQVFTSTIGGATDPDLASLSEEAIVQQVQQDLNRLLDLPAAKARLLGMKVWRRAIPQYMVGYPEQWQQVTHALSQTPGLFLCSNYAEGVALGDRVEHGNRTAAAVAAYLSGGQP",++ (‘+’ per each 10-fold resistance),++++ (‘+’ per each 10-fold resistance),++ (‘+’ per each 10-fold resistance),++ (‘+’ per each 10-fold resistance),++++ (‘+’ per each 10-fold resistance),+++ (‘+’ per each 10-fold resistance),++++ (‘+’ per each 10-fold resistance)
